Measurements as given in article PMC3558616 (Molecular microbiology, 2012).

Target: the molecule itself
Assay: SEC

B1: HvJAMM2 (Haloferax volcanii JAMM/MPN+ domain protein, HVO_1016), His6-tagged (natural protein, UniProt D4GVJ3 1-161, looked up)
chain: MRLFRSREVVGIAADALDFALEASAETHPNEYMGLLRGEEARRVGVDRDGYVVTDVLIIPGTVSDPYSATVRNDLVPNDFHAVGSIHSHPNGVLRPSDADLDTFGSGRVHIIIGSPYGPDDWEAFDQSGEVRDLDVLDADLSDPESFFDFTQDDIDAELDR
stoichiometry N: 2
